Positions count from the first letter of the chain named. Read-outs that look alike come from different tables or passages of the source. A value given as a limit tells only on which side of the number the result lay.

Assay [1] concerns the target T1, Recombinant human RANKL-his protein (R&D, Cat #6449-TEC-010) (human, UniProt O14788 140-317, limits assumed).
T1 sequence (looked up): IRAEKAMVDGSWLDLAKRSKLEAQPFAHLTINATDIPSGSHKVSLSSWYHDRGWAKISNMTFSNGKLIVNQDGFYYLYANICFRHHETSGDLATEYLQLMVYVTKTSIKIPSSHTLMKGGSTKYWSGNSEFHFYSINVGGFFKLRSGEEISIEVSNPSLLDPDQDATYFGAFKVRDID
As to the kind of experiment: cell-based or functional assay.

Assay [2] has as its target T2, human RANKL-his protein (prepared in-house with SEQ ID NO: 43) (human, UniProt O14788 136-317).
T2 construct: also called recombinant human RANKL-his
T2 chain: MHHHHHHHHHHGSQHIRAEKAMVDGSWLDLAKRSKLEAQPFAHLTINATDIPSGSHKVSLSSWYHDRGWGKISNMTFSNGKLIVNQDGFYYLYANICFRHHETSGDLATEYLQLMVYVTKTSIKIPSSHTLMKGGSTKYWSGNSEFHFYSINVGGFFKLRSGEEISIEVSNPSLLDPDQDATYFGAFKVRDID
The experiment in a line: Octet BLI, antibody captured, human RANKL-his in solution (same value as Table 2). Here is the method:
(§1) Briefly, AHC/AMC biosensors (anti-human/anti-mouse IgG Fc capture, ForteBio) were presoaked with 10 mM glycine (pH 1.5) for 3 seconds, and then dipped in a well with running buffer (0.5% w/v BSA in PBST) for 3 seconds, the soaking and dipping steps were repeated for three times. […] A new baseline was run for 180 seconds in another well with HBS-EP⁺. […] Finally, sensors were presoaked with 10 mM glycine (pH 1.5) for 3 seconds, and then dipped in a well with running buffer for 3 seconds, the soaking and dipping steps repeated for three times. The association and dissociation curves were fit to a 1:1 Langmuir binding model using Octet evaluation software.
(In general: Biolayer interferometry detects binding as a change in optical thickness at a sensor tip.)

In assay [3] the target is T3, biotin-labeled human RANKL-Fc protein (prepared in house, SEQ ID NO.: 40) (human, biotin-labeled (sites not given)).
T3 construct: also called RANKL-Fc-biotin
The experiment in a line: capture ELISA: captured antibody, biotin-labeled human RANKL-Fc, OD(450-630). As for the experimental part:
(§2) Plates were washed once with wash buffer (PBS+0.05% v/v Tween-20, PBST) and then blocked with 200 μl/well blocking buffer (5% w/v non-fatty milk in PBST) for 2 hours at 37° C. […] After a final wash, plates were incubated with 100 μl/well ELISA substrate TMB (Innoreagents, Cat #TMB-S-002) at room temperature. The reaction was stopped in 3-10 minutes with 50 μl/well 1M H₂SO₄, and the absorbance of each well was read on a microplate reader using dual wavelengths mode with 450 nm for TMB and 630 nm as the reference wavelength. The OD (450-630) values were plotted against antibody concentration. Data were analyzed using Graphpad Prism software and EC₅₀ values were reported.
Background: ELISA stands for enzyme-linked immunosorbent assay.

The target in assay [4] is T3, biotin-labeled human RANKL-Fc protein …. The assay is described as above. As for the experimental part: as §2
(§3) Cell supernatants were harvested after six days in shaking flasks, spun down to pellet cells, and then chimeric antibodies were purified from cell supernatants as described above. The purified antibodies were tested in the capture ELISA, competitive ELISA assay and Octet affinity test following the protocols in the foregoing Examples.
The source holds these as a separate data set.

Assay [5] concerns the target T2, human RANKL-his protein (prepared …). The experiment in a line: Octet BLI, antibody captured on AHC/AMC sensor, human RANKL-his in solution, 1:1 fit. As for the experimental part: as §1
Assay [6] concerns the target T3, biotin-labeled human RANKL-Fc protein …. As to the kind of experiment: competitive ELISA: antibody blocks biotin-labeled human RANKL-Fc binding to coated human RANK-Fc. Here is the method:
(§4) Briefly, human RANK-Fc proteins (prepared in house, SEQ ID NO.: 41) were coated on 96-well micro plates at 2.0 μg/mL in PBS, 100 μl/well, and incubated overnight at 4° C. The next day, plates were washed with wash buffer (PBS+0.05% w/v Tween-20, PBST), and blocked with 5% w/v non-fatty milk in PBST, 200 μl/well, for 2 hours at 37° C.
(§5) Plates were washed 4 times using wash buffer, and added and incubated with 100 μl/well of streptavidin conjugated HRP (1:10000 dilution in PBST buffer, Jackson ImmunoResearch Laboratories, Inc., Cat #016-030-084) for 40 minutes at 37° C. Plates were washed again using wash buffer. Finally, TMB was added and the reaction was stopped using 1M H₂SO₄, and the absorbance of each well was read on a microplate reader using dual wavelengths mode with 450 nm for TMB and 630 nm as the reference wavelength. The OD (450-630) values were plotted against antibody concentration. Data were analyzed using Graphpad Prism software and IC₅₀ values were reported.

Assay [7] shares this target. As to the kind of experiment: competitive ELISA: antibody blocks biotin-labeled human RANKL-Fc binding to coated benchmark denosumab. Here is the method: The next day, plates were washed with wash buffer, and blocked with 5% w/v non-fatty milk in PBST, 200 μl/well, for 2 hours at 37° C. […] After incubation at 37° C. for 40 minutes, plates were washed 4 times using wash buffer. Then the plates were added and incubated with 100 μl Peroxidase Streptavidin (1:5000 dilution in PBST buffer, Jackson Immunoresearch, Cat #016-030-084) for 40 minutes at 37° C. Plates were washed again using wash buffer. Finally, TMB was added and the reaction was stopped using 1M H₂SO₄. The absorbance of each well was read on a microplate reader using dual wavelengths mode with 450 nm for TMB and 630 nm as the reference wavelength, and the OD (450-630) values were plotted against antibody concentration. Data were analyzed using Graphpad Prism software and IC₅₀ values were reported.

Assay [8] addresses T1, Recombinant human RANKL-his protein …. As to the kind of experiment: cell-based or functional assay. The source holds these as a separate data set.
Assay [9] shares this target. As to the kind of experiment: cell-based or functional assay. The source holds these as a separate data set.
The target of assay [10] is T2, human RANKL-his protein (prepared …). As to the kind of experiment: Octet BLI, antibody captured, human RANKL-his in solution. Here is the method:
as §1, §3

For assay [11] the target is unchanged. As to the kind of experiment: Octet BLI, chimeric antibody at 5 ug/ml captured, human RANKL-his in solution. As for the experimental part: as §1
(§6) The chimeric antibody when tested was in HBS-EP⁺ at 5 μg/ml concentration.

Assay [12] concerns the target T3, biotin-labeled human RANKL-Fc protein …. As to the kind of experiment: capture ELISA: captured antibody, biotin-labeled human RANKL-Fc, OD(450-630). As for the experimental part:
as §2
For the capture ELISA, 96-well micro plates were coated with 2 μg/ml goat anti-human IgG (AffiniPure Goat Anti-Human IgG, F(ab′)₂ fragment specific, Jackson Immunoresearch, Cat #109-005-097) instead of AffiniPure Goat Anti-Mouse IgG, Fcγ fragment specific, 100 μl/well.
This is another data set of the same source.

In assay [13] the target is T2, human RANKL-his protein (prepared …). As to the kind of experiment: Biacore T200 SPR, antibody captured by anti-human IgG, human RANKL-his in flow, 1:1 fit. Here is the method: (§7) Briefly, goat anti-human IgG (GE healthcare, Cat #BR100839, Human Antibody Capture Kit) was covalently linked to a CM5 chip (carboxy methyl dextran coated chip from GE healthcare #BR10030) via primary amines, using a standard amine coupling kit provided by Biacore. Un-reacted moieties on the biosensor surface were blocked with ethanolamine. […] The antigen-antibody association kinetics was followed for 2 minutes and the dissociation kinetics was followed for 10 minutes. The association and dissociation curves were fit to a 1:1 Langmuir binding model using BIAcore evaluation software.
A general note: SPR reads the build-up and loss of mass on a sensor chip optically.

Assay [14] concerns the target T4, cynomolgus monkey RANKL-his protein (prepared in-house with SEQ ID NO.:42) (cynomolgus monkey, UniProt O14788 136-317 (human entry), limits assumed).
T4 construct: also called Cynomolgus RANKL
T4 chain: T2 chain with S53T, G70A, I167V
The experiment in a line: Biacore T200 SPR, antibody captured by anti-human IgG, cynomolgus RANKL-his in flow, 1:1 fit. Here is the method: as §7

In assay [15] the target is T3, biotin-labeled human RANKL-Fc protein …. As to the kind of experiment: competitive ELISA: antibody blocks biotin-labeled human RANKL-Fc binding to coated human RANK-Fc. The source holds these as a separate data set.
Assay [16] has the same target. The description is as above. As for the experimental part:
as §4, §5
This is another data set of the same source.

For assay [17] the target is unchanged. The experiment in a line: competitive ELISA: antibody blocks biotin-labeled human RANKL-Fc binding to coated benchmark denosumab. This is another data set of the same source.
For assay [18] the target is unchanged. Described as above. The source holds these as a separate data set.
Assay [19] addresses T1, Recombinant human RANKL-his protein …. The experiment in a line: cell-based or functional assay. The source holds these as a separate data set.
Assay [20] has as its target T2, human RANKL-his protein (prepared …). The experiment in a line: Octet BLI, antibody from cell supernatant captured, human RANKL-his in solution. As for the experimental part: as §1, §6

B1: mouse anti-RANKL monoclonal antibody B3D8 (antibody, V domains shown)
VH: EVQLVESGGDLVKSGGSLKLSCAASGFTFSRYGMSWVRQTPDKRLEWVASISSGGTYTSYPDSVKGRFTITRDSAKNTLYLQMSSLKSEDTAMYYCARRNFITSATDCYFDVWGAGTTVTVSS
VL: DTVLTQSPATLSVTPGASVSLSCRASQSISNNLHWYQQKSHESPRLLIIYASQSISGIPSRFSGSGSGTDFTLSINSVETEDFGVYFCQQSNSWPFTFGGGTKLEIK
notes: Hybridoma-derived mouse IgG; also called Mouse B3D8
As to B1, in [1], the “IC50, RANKL-induced osteoclast differentiation of RAW264.7 cells (pNPP, OD405)” value is 0.625 nM. For the same molecule, the dissociation constant (Kd) in assay [2] and in assay [5] was 0.452 nM throughout. The EC50 amounted to 0.162 nM in assay [3] and 0.489 nM in assay [4]. This molecule had a koff in assay [5] of 0.000277 s⁻¹. In [5], the kon worked out at 613000 M⁻¹ s⁻¹. In addition, the IC50 in assay [6] amounted to 0.233 nM; in [7], 0.548 nM.

B2: Chimeric D1A1 (antibody, human IgG2, kappa, V domains shown)
VH: EVQLVESGGGLVKSGGSLKLSCAASGFTFRNYAMSWVRQTPEKRLEWVAGISSGGTYTYYPDTVKGRFTISRDNARNTLFLQMSSLRSEDTAMYYCARRDYGDVYEWYFDVWGTGTTVTVSS
VL: DIVMTQSHKFMSTSVGDRVSITCKASQDVRTSIAWYQQKPGQSPNLLIYSASYRYTGVPDRFTGSGSGTDFTFTISSVQAEDLAVYYCQQHYSSPWTFGGGTKLEIKR
notes: Mouse variable regions on human IgG2 / kappa; also called chimeric antibody D1A1; chimeric D1A1 antibody
For the molecule B2, the results for the “IC50, RANKL-induced osteoclast differentiation of RAW264.7 cells (pNPP, OD405)” value in assay [8] and in assay [9] were 1.39 nM and about 1.42 nM, respectively. For the same molecule, the Kd in assay [10] was 0.197 nM; in [11], under 0.001 nM; in assay [13], 0.149 nM; in assay [14] it was 0.42 nM. In assay [11], this molecule returned a koff of under 1e-07 s⁻¹. The molecule also gave a kon in assay [11] of 128000 M⁻¹ s⁻¹. In addition, the concentration for a half-maximal effect (EC50) was determined as 0.257 nM in assay [12] and 0.624 nM in assay [4]. For the same molecule, the IC50 in [15] is 0.112 nM; in assay [16] it was 0.155 nM; in assay [17], 0.473 nM; in assay [18], 0.441 nM.

B3: humanized antibody huD1A1-V5 (antibody, human IgG4 S228P, kappa, V domains shown)
VH: EVQLVESGGGLVKPGGSLRLSCAASGFTFRNYAMSWVRQAPGKGLEWVSGISSGGTYTYYPDTVKGRFTISRDNAKNSLYLQMNSLRAEDTAVYYCARRDYGDVYEWYFDVWGKGTTVTVSS
VL: DIQMTQSPSSLSASVGDRVTITCKASQDVRTSIAWYQQKPGKSPKLLIYSASYRYTGVPSRFSGSGSGTDFTFTISSLQPEDLATYYCQQHYSSPWTFGGGTKVEIKR
notes: Human IgG4 / kappa
On to B3, for which the “IC50, RANKL-induced osteoclast differentiation of RAW264.7 cells (pNPP, OD405)” value in assay [19] is about 1.42 nM; in [9] it was 1.51 nM. For the same molecule, the results for the dissociation constant Kd in assay [20], in [13] and in assay [14] were under 0.001 nM, 0.179 nM and 0.414 nM, respectively. Further, in [20], the off-rate (koff) is under 1e-07 s⁻¹. Besides, the on-rate (kon) in assay [20] amounted to 120000 M⁻¹ s⁻¹. In [12], the EC50 came to 0.182 nM. The concentration for half-maximal inhibition (IC50) was found to be 0.139 nM in assay [16] and 0.338 nM in assay [18].

Usually Kd stands for the constant that tells how readily two partners part at equilibrium. A word on the EC50: it is the concentration at which the effect is half-maximal. For orientation: koff means a measure of how fast the partners let go of each other. As usually defined, the kon is the rate constant with which the complex forms. A word on the IC50: it is the concentration that gives 50% inhibition.

Source of the values: patent publication US20230034768A1 (BIOSION, published 2023).
